From US20100272750A1

target: HLA A0201 (human); test: 125I-probe competition, purified HLA

**Q.** For FLLCFCVLL (modifications not checked) [HPV31.E5.15], which IC50 is on record?
**A.** 9.6 nM

**Q.** YVVWDSIYYI (modifications not checked) [HPV45.E2.137] was tested. Which IC50 did it give?
**A.** 77 nM

**Q.** How did the IC50 turn out when VAWDSVYYM (modifications not checked) [HPV18.E2.136] was run?
**A.** 172 nM

**Q.** How did the IC50 turn out when TVYVFCFLL (modifications not checked) [HPV18.E5.51] was run?
**A.** 175 nM

**Q.** FIYIPLFVI (modifications not checked) [HPV31.E5.66] was tested. Which IC50 did it give?
**A.** 26 nM

**Q.** With TLYAHIQCL (modifications not checked) [HPV45.E1.252] as the binder, how does the IC50 read?
**A.** 34 nM

**Q.** YTNWKFIYL (modifications not checked) [HPV31.E2.131] was tested. Which IC50 did it give?
**A.** 69 nM

target: HLA A0202 (human); test: 125I-probe competition, purified HLA

**Q.** Which IC50 does the source give for FLLCFCVLL (modifications not checked) [HPV31.E5.15] here?
**A.** 13 nM

**Q.** Which IC50 does the source give for YVVWDSIYYI (modifications not checked) [HPV45.E2.137] here?
**A.** 27 nM

**Q.** For VAWDSVYYM (modifications not checked) [HPV18.E2.136], which IC50 is on record?
**A.** 603 nM

**Q.** For TVYVFCFLL (modifications not checked) [HPV18.E5.51], which IC50 is on record?
**A.** 587 nM

**Q.** How did the IC50 turn out when FIYIPLFVI (modifications not checked) [HPV31.E5.66] was run?
**A.** 97 nM

**Q.** How did the IC50 turn out when TLYAHIQCL (modifications not checked) [HPV45.E1.252] was run?
**A.** 4.9 nM

**Q.** For YTNWKFIYL (modifications not checked) [HPV31.E2.131], which IC50 is on record?
**A.** 14 nM

target: HLA A0203 (human); test: 125I-probe competition, purified HLA

**Q.** For FLLCFCVLL (modifications not checked) [HPV31.E5.15], which IC50 is on record?
**A.** 34 nM

**Q.** With YVVWDSIYYI (modifications not checked) [HPV45.E2.137] as the binder, how does the IC50 read?
**A.** 248 nM

**Q.** With VAWDSVYYM (modifications not checked) [HPV18.E2.136] as the binder, how does the IC50 read?
**A.** 1330 nM

**Q.** How did the IC50 turn out when TVYVFCFLL (modifications not checked) [HPV18.E5.51] was run?
**A.** 769 nM

**Q.** FIYIPLFVI (modifications not checked) [HPV31.E5.66] was tested. Which IC50 did it give?
**A.** 47 nM

**Q.** For TLYAHIQCL (modifications not checked) [HPV45.E1.252], which IC50 is on record?
**A.** 6.2 nM

**Q.** How did the IC50 turn out when YTNWKFIYL (modifications not checked) [HPV31.E2.131] was run?
**A.** 31 nM

target: HLA A0206 (human); test: 125I-probe competition, purified HLA

**Q.** FLLCFCVLL (modifications not checked) [HPV31.E5.15] was tested. Which IC50 did it give?
**A.** 2.6 nM

**Q.** How did the IC50 turn out when YVVWDSIYYI (modifications not checked) [HPV45.E2.137] was run?
**A.** 20 nM

**Q.** VAWDSVYYM (modifications not checked) [HPV18.E2.136] was tested. Which IC50 did it give?
**A.** 790 nM

**Q.** Which IC50 does the source give for TVYVFCFLL (modifications not checked) [HPV18.E5.51] here?
**A.** 26 nM

**Q.** For FIYIPLFVI (modifications not checked) [HPV31.E5.66], which IC50 is on record?
**A.** 8.1 nM

**Q.** With TLYAHIQCL (modifications not checked) [HPV45.E1.252] as the binder, how does the IC50 read?
**A.** 417 nM

**Q.** For YTNWKFIYL (modifications not checked) [HPV31.E2.131], which IC50 is on record?
**A.** 84 nM

target: HLA A0301 (human); test: 125I-probe competition, purified HLA

**Q.** Which IC50 does the source give for SVICFVNSK (modifications not checked) [HPV16.E1.497] here?
**A.** 109 nM

**Q.** With STAAALYWYR (modifications not checked) [HPV31.E1.294] as the binder, how does the IC50 read?
**A.** 198 nM

**Q.** With ATMCRHYKR (modifications not checked) [HPV16.E1.406] as the binder, how does the IC50 read?
**A.** 90 nM

**Q.** How did the IC50 turn out when STAAALYWYK (modifications not checked) [HPV16.E1.314] was run?
**A.** 5 nM

**Q.** Which IC50 does the source give for VVLLLVRYK (modifications not checked) [HPV16.E1.274] here?
**A.** 6.3 nM

target: HLA A1101 (human); test: 125I-probe competition, purified HLA

**Q.** For SVICFVNSK (modifications not checked) [HPV16.E1.497], which IC50 is on record?
**A.** 2.2 nM

**Q.** For STAAALYWYR (modifications not checked) [HPV31.E1.294], which IC50 is on record?
**A.** 10 nM

**Q.** With ATMCRHYKR (modifications not checked) [HPV16.E1.406] as the binder, how does the IC50 read?
**A.** 14 nM

**Q.** Which IC50 does the source give for STAAALYWYK (modifications not checked) [HPV16.E1.314] here?
**A.** 2 nM

**Q.** With VVLLLVRYK (modifications not checked) [HPV16.E1.274] as the binder, how does the IC50 read?
**A.** 4.1 nM

target: HLA A3101 (human); test: 125I-probe competition, purified HLA

**Q.** With SVICFVNSK (modifications not checked) [HPV16.E1.497] as the binder, how does the IC50 read?
**A.** 25 nM

**Q.** STAAALYWYR (modifications not checked) [HPV31.E1.294] was tested. Which IC50 did it give?
**A.** 5.6 nM

**Q.** ATMCRHYKR (modifications not checked) [HPV16.E1.406] was tested. Which IC50 did it give?
**A.** 10 nM

**Q.** With STAAALYWYK (modifications not checked) [HPV16.E1.314] as the binder, how does the IC50 read?
**A.** 35 nM

**Q.** With VVLLLVRYK (modifications not checked) [HPV16.E1.274] as the binder, how does the IC50 read?
**A.** 0.1 nM

target: HLA A3301 (human); test: 125I-probe competition, purified HLA

**Q.** For SVICFVNSK (modifications not checked) [HPV16.E1.497], which IC50 is on record?
**A.** 51 nM

**Q.** With STAAALYWYR (modifications not checked) [HPV31.E1.294] as the binder, how does the IC50 read?
**A.** 47 nM

**Q.** ATMCRHYKR (modifications not checked) [HPV16.E1.406] was tested. Which IC50 did it give?
**A.** 17 nM

**Q.** Which IC50 does the source give for STAAALYWYK (modifications not checked) [HPV16.E1.314] here?
**A.** 128 nM

**Q.** For VVLLLVRYK (modifications not checked) [HPV16.E1.274], which IC50 is on record?
**A.** 6.1 nM

target: HLA A6801 (human); test: 125I-probe competition, purified HLA

**Q.** With SVICFVNSK (modifications not checked) [HPV16.E1.497] as the binder, how does the IC50 read?
**A.** 5.4 nM

**Q.** How did the IC50 turn out when STAAALYWYR (modifications not checked) [HPV31.E1.294] was run?
**A.** 12 nM

**Q.** For ATMCRHYKR (modifications not checked) [HPV16.E1.406], which IC50 is on record?
**A.** 35 nM

**Q.** How did the IC50 turn out when STAAALYWYK (modifications not checked) [HPV16.E1.314] was run?
**A.** 6 nM

**Q.** For VVLLLVRYK (modifications not checked) [HPV16.E1.274], which IC50 is on record?
**A.** 76 nM

target: HLA A6802 (human); test: 125I-probe competition, purified HLA

**Q.** Which IC50 does the source give for FLLCFCVLL (modifications not checked) [HPV31.E5.15] here?
**A.** 237 nM

**Q.** For YVVWDSIYYI (modifications not checked) [HPV45.E2.137], which IC50 is on record?
**A.** 30 nM

**Q.** For VAWDSVYYM (modifications not checked) [HPV18.E2.136], which IC50 is on record?
**A.** 5150 nM

**Q.** With TVYVFCFLL (modifications not checked) [HPV18.E5.51] as the binder, how does the IC50 read?
**A.** 41 nM

**Q.** With FIYIPLFVI (modifications not checked) [HPV31.E5.66] as the binder, how does the IC50 read?
**A.** 157 nM

**Q.** TLYAHIQCL (modifications not checked) [HPV45.E1.252] was tested. Which IC50 did it give?
**A.** 1610 nM

**Q.** With YTNWKFIYL (modifications not checked) [HPV31.E2.131] as the binder, how does the IC50 read?
**A.** 146 nM
